Measurements published in the supplement of paper PMC10126150.
± gives the standard deviation of the averaged measurements.

Test system: ATP
Assay: switch fluorescence ratio, 500 uM ATP over buffer (Cy3 cluster intensity, sum of 5 cycles each) (fold (ratio)); higher = stronger signal-on switching upon ATP binding; sequences stand for … in TCGTCGGCAGCGTCAGATGTGTATAAGAGACAGTTTTTTTTTTTTTTTTTTTTTTTTT…TC
Settings: aptamer strand: ATP DNA aptamer (quencher-CACCTGGGGGAGTATTGCGGAGGAAGG + anchor), 100 nM annealed; ATP concentration: 500 uM
In short: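 Imaging in selection buffer was followed by imaging after 15 min with 500 uM ATP at 22 °C, for Cy3-labelled switching-strand clusters annealed to 100 nM quencher-labelled ATP aptamer on a modified Illumina MiSeq flow-cell. Five of these buffer/ATP cycles ran, separated by NaOH stripping and re-annealing. The fluorescence ratio per cluster is summed target-cycle over summed buffer-cycle Cy3 intensity, averaged per switch-domain sequence; clusters outside 100-1000 RFU were removed.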
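Note: ATP exposure 15 min at 22 °C before imaging.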

Sequence TTAGTTGGAC has a switch fluorescence ratio of 1.03 ± 0.038.

For TTAGTTGGGC, the switch fluorescence ratio was 1.01 ± 0.069.

In the case of TTAGTTTAAG, the switch fluorescence ratio is reported as 0.999 ± 0.017.

TTAGTTTAGG was tested, and the switch fluorescence ratio was 0.9824 ± 0.0096.

Work on TTAGTTTCAG yielded a switch fluorescence ratio of 1.012 ± 0.0033.

Sequence TTAGTTTGCA has a switch fluorescence ratio of 1.02 ± 0.022.

TTAGTTTGCT gave a switch fluorescence ratio of 1.01 ± 0.019.

TTAGTTTTGG gave a switch fluorescence ratio of 1.04 ± 0.046.

Sequence TTATAAAAGT has a switch fluorescence ratio of 0.962 ± 0.011.

Sequence TTATAAATAT has a switch fluorescence ratio of 1.08 ± 0.044.

With TTATAAGCTT the switch fluorescence ratio was 0.997 ± 0.021.

Sequence TTATAAGGTT has a switch fluorescence ratio of 1.02 ± 0.023.

Sequence TTATAATAG has a switch fluorescence ratio of 1.039 ± 0.0073.

For TTATAATCCG, the switch fluorescence ratio was 0.988 ± 0.031.

With TTATAATGGC the switch fluorescence ratio was 1.02 ± 0.08.

TTATACATGG was tested, and the switch fluorescence ratio was 1.07 ± 0.0024.

Work on TTATACGGAA yielded a switch fluorescence ratio of 1.11 ± 0.057.

Work on TTATACGGAG yielded a switch fluorescence ratio of 1.01 ± 0.025.

In the case of TTATACTCTT, the switch fluorescence ratio is reported as 1.01 ± 0.026.

Sequence TTATAGAATG has a switch fluorescence ratio of 0.985 ± 0.038.

For TTATAGACAG, the switch fluorescence ratio was 0.997 ± 0.034.

For TTATAGCCCA, the switch fluorescence ratio was 1.0151 ± 0.00025.

TTATAGCCTT gave a switch fluorescence ratio of 1.04 ± 0.046.

With TTATAGGAAC the switch fluorescence ratio was 1.02 ± 0.013.

TTATAGGGAG was tested, and the switch fluorescence ratio was 0.97261 ± 0.00039.

Sequence TTATAGGTTG has a switch fluorescence ratio of 0.984 ± 0.02.

With TTATAGGTTT the switch fluorescence ratio was 1 ± 0.019.

TTATAGTCGT was tested, and the switch fluorescence ratio was 1 ± 0.015.

For TTATAGTGGG, the switch fluorescence ratio was 1 ± 0.022.

With TTATAGTTAT the switch fluorescence ratio was 1.001 ± 0.0029.

Work on TTATATTAAG yielded a switch fluorescence ratio of 1.01 ± 0.031.

With TTATATTAGC the switch fluorescence ratio was 1 ± 0.054.

Sequence TTATATTAGT has a switch fluorescence ratio of 0.9919 ± 0.0056.

Work on TTATATTCTT yielded a switch fluorescence ratio of 0.9964 ± 0.0042.

With TTATCACTCG the switch fluorescence ratio was 1.01 ± 0.0054.

For TTATCGAGAA, the switch fluorescence ratio was 0.9879 ± 0.0024.

For TTATCGCTTG, the switch fluorescence ratio was 0.9974 ± 0.003.

TTATCGGGG showed a switch fluorescence ratio of 0.942 ± 0.053.

TTATCTAAGT was tested, and the switch fluorescence ratio was 1 ± 0.036.

For TTATCTAGTG, the switch fluorescence ratio was 0.9894 ± 0.0054.

In the case of TTATCTGGAA, the switch fluorescence ratio is reported as 1.06 ± 0.055.

Work on TTATCTGTTT yielded a switch fluorescence ratio of 1.02 ± 0.028.

TTATCTTAAT was tested, and the switch fluorescence ratio was 1.01 ± 0.015.

TTATCTTACA showed a switch fluorescence ratio of 0.996 ± 0.059.

TTATGAAAGC gave a switch fluorescence ratio of 1.02 ± 0.042.

TTATGAAGAT gave a switch fluorescence ratio of 0.963 ± 0.029.

TTATGAGGCT gave a switch fluorescence ratio of 1.01 ± 0.013.

TTATGATGGT was tested, and the switch fluorescence ratio was 0.992 ± 0.018.

With TTATGCAAAG the switch fluorescence ratio was 1.1 ± 0.15.

In the case of TTATGCATCG, the switch fluorescence ratio is reported as 0.9768 ± 0.0047.

TTATGCGGAT showed a switch fluorescence ratio of 1.02 ± 0.015.

In the case of TTATGCGGTT, the switch fluorescence ratio is reported as 0.992 ± 0.02.

Work on TTATGCTATG yielded a switch fluorescence ratio of 1.055 ± 0.0034.

With TTATGCTATT the switch fluorescence ratio was 1 ± 0.022.

Work on TTATGCTTTT yielded a switch fluorescence ratio of 1.0043 ± 0.00054.

For TTATGGATGT, the switch fluorescence ratio was 1.03 ± 0.013.

TTATGGGAAC showed a switch fluorescence ratio of 0.97391 ± 0.00081.

TTATGGGAGA gave a switch fluorescence ratio of 1.04 ± 0.042.

TTATGGGGAA showed a switch fluorescence ratio of 0.987 ± 0.015.

Sequence TTATGGGGGA has a switch fluorescence ratio of 1.01 ± 0.018.

TTATGGGGGG showed a switch fluorescence ratio of 1.01 ± 0.042.

Sequence TTATGGTGT has a switch fluorescence ratio of 1.0044 ± 0.00076.

With TTATGTAAGG the switch fluorescence ratio was 0.971 ± 0.014.

TTATGTATGT was tested, and the switch fluorescence ratio was 0.996 ± 0.017.

For TTATGTGTTT, the switch fluorescence ratio was 1.014 ± 0.006.

TTATGTTGTT was tested, and the switch fluorescence ratio was 1 ± 0.018.

For TTATTAAAAC, the switch fluorescence ratio was 0.999 ± 0.013.

TTATTAAAAG was tested, and the switch fluorescence ratio was 1.2 ± 0.39.

In the case of TTATTAAGTG, the switch fluorescence ratio is reported as 1 ± 0.017.

Work on TTATTAATCT yielded a switch fluorescence ratio of 0.9974 ± 0.0049.

TTATTAATT was tested, and the switch fluorescence ratio was 0.997 ± 0.028.

With TTATTAGTTA the switch fluorescence ratio was 0.988 ± 0.011.

For TTATTATGCC, the switch fluorescence ratio was 1.02 ± 0.061.

In the case of TTATTATGTG, the switch fluorescence ratio is reported as 0.946 ± 0.022.

Work on TTATTATTCA yielded a switch fluorescence ratio of 1.008 ± 0.0047.

Sequence TTATTATTTC has a switch fluorescence ratio of 0.98 ± 0.05.

TTATTCAAGG gave a switch fluorescence ratio of 0.99 ± 0.017.

In the case of TTATTCAGGA, the switch fluorescence ratio is reported as 1.01 ± 0.029.

With TTATTCATGT the switch fluorescence ratio was 0.984 ± 0.011.

With TTATTCGAGA the switch fluorescence ratio was 1.02 ± 0.034.

Work on TTATTCGGTG yielded a switch fluorescence ratio of 0.98 ± 0.021.

In the case of TTATTCGTGT, the switch fluorescence ratio is reported as 1.01 ± 0.04.

With TTATTCTGTT the switch fluorescence ratio was 0.976 ± 0.047.

TTATTGAGTA showed a switch fluorescence ratio of 1.005 ± 0.0048.

With TTATTGCATG the switch fluorescence ratio was 0.96 ± 0.013.

For TTATTGCTGT, the switch fluorescence ratio was 0.989 ± 0.013.

In the case of TTATTGGAAA, the switch fluorescence ratio is reported as 1.012 ± 0.0059.

Work on TTATTGGGCC yielded a switch fluorescence ratio of 1.01 ± 0.026.

TTATTGGGGC gave a switch fluorescence ratio of 1.01 ± 0.03.

In the case of TTATTGGGGT, the switch fluorescence ratio is reported as 1.01 ± 0.013.

TTATTTACTA was tested, and the switch fluorescence ratio was 1.04 ± 0.011.

TTATTTAGCT was tested, and the switch fluorescence ratio was 1.01 ± 0.017.

TTATTTAGGG was tested, and the switch fluorescence ratio was 0.991 ± 0.0055.

In the case of TTATTTATGT, the switch fluorescence ratio is reported as 1 ± 0.012.

Sequence TTATTTCGAA has a switch fluorescence ratio of 1.01 ± 0.012.

TTATTTCGTT gave a switch fluorescence ratio of 0.989 ± 0.026.

TTATTTGGTA was tested, and the switch fluorescence ratio was 0.986 ± 0.044.

Work on TTATTTGTTG yielded a switch fluorescence ratio of 0.971 ± 0.05.

TTATTTTAGC was tested, and the switch fluorescence ratio was 0.976 ± 0.019.

Work on TTATTTTCAG yielded a switch fluorescence ratio of 0.996 ± 0.053.

TTATTTTTAA gave a switch fluorescence ratio of 0.9809 ± 0.0038.

TTATTTTTCT gave a switch fluorescence ratio of 1.01 ± 0.032.

With TTATTTTTT the switch fluorescence ratio was 1.02 ± 0.018.

TTCAAATATA showed a switch fluorescence ratio of 1.003 ± 0.0017.

With TTCAAATCGA the switch fluorescence ratio was 1 ± 0.039.

Sequence TTCAAATGAA has a switch fluorescence ratio of 1 ± 0.016.

For TTCAAATGGA, the switch fluorescence ratio was 0.991 ± 0.041.

TTCAAGGGGT was tested, and the switch fluorescence ratio was 0.994 ± 0.025.

Sequence TTCAAGGTGC has a switch fluorescence ratio of 1.4 ± 0.069.

Sequence TTCAATGAAA has a switch fluorescence ratio of 1 ± 0.054.

TTCAATGAGG was tested, and the switch fluorescence ratio was 0.973 ± 0.052.

TTCAATGGTG gave a switch fluorescence ratio of 1.023 ± 0.0014.

TTCAATTGTT showed a switch fluorescence ratio of 1.02 ± 0.017.

In the case of TTCACATAGC, the switch fluorescence ratio is reported as 1.05 ± 0.1.

Sequence TTCACTTGGA has a switch fluorescence ratio of 1.03 ± 0.033.

TTCACTTGTG showed a switch fluorescence ratio of 1 ± 0.018.

Sequence TTCAGAATTG has a switch fluorescence ratio of 1.0012 ± 0.00092.

TTCAGACAGG showed a switch fluorescence ratio of 1.09 ± 0.02.

TTCAGATTGC was tested, and the switch fluorescence ratio was 0.987 ± 0.044.

With TTCAGCAGAG the switch fluorescence ratio was 1.41 ± 0.59.

In the case of TTCAGCGTCT, the switch fluorescence ratio is reported as 0.975 ± 0.043.

TTCAGCTGTT gave a switch fluorescence ratio of 1.01 ± 0.011.

TTCAGGCATG showed a switch fluorescence ratio of 0.999 ± 0.04.

TTCAGGCTGT showed a switch fluorescence ratio of 0.9811 ± 0.0054.

Sequence TTCAGGGGGA has a switch fluorescence ratio of 1.02 ± 0.023.

Sequence TTCAGGGTTT has a switch fluorescence ratio of 1.5 ± 0.9.

Work on TTCAGGTGCC yielded a switch fluorescence ratio of 1.46 ± 0.04.

TTCAGTTTAG was tested, and the switch fluorescence ratio was 1 ± 0.031.

In the case of TTCAGTTTTG, the switch fluorescence ratio is reported as 0.982 ± 0.024.

With TTCATAGTCG the switch fluorescence ratio was 0.98 ± 0.07.

TTCATCCAGC showed a switch fluorescence ratio of 1.13 ± 0.07.

TTCATCGCTG gave a switch fluorescence ratio of 1.04 ± 0.053.

In the case of TTCATGGAGT, the switch fluorescence ratio is reported as 0.983 ± 0.028.

For TTCATGGATA, the switch fluorescence ratio was 0.999 ± 0.066.

Sequence TTCATGGGGA has a switch fluorescence ratio of 0.985 ± 0.023.

Sequence TTCATGGGGT has a switch fluorescence ratio of 1.04 ± 0.033.

TTCATGTGAA showed a switch fluorescence ratio of 1 ± 0.04.

For TTCATTACCC, the switch fluorescence ratio was 1.028 ± 0.0082.

Sequence TTCATTCCGA has a switch fluorescence ratio of 1.29 ± 0.095.

With TTCATTTACA the switch fluorescence ratio was 1.04 ± 0.033.

For TTCCAAGGGA, the switch fluorescence ratio was 1 ± 0.029.

TTCCAGGATT showed a switch fluorescence ratio of 1.04 ± 0.089.

TTCCAGTCC was tested, and the switch fluorescence ratio was 1.06 ± 0.027.

TTCCATGGCC gave a switch fluorescence ratio of 1.04 ± 0.044.

Sequence TTCCCAAATT has a switch fluorescence ratio of 1.19 ± 0.19.

Sequence TTCCCCATTG has a switch fluorescence ratio of 1.09 ± 0.023.

With TTCCCCGGCA the switch fluorescence ratio was 1.28 ± 0.35.

For TTCCCGATCA, the switch fluorescence ratio was 1.01 ± 0.018.

Sequence TTCCCTGTTT has a switch fluorescence ratio of 1.01 ± 0.023.

Sequence TTCCCTTAAT has a switch fluorescence ratio of 1 ± 0.015.

Sequence TTCCGACCGG has a switch fluorescence ratio of 1.28 ± 0.38.

For TTCCGATTCG, the switch fluorescence ratio was 1.09 ± 0.035.

With TTCCGGAGGC the switch fluorescence ratio was 1.22 ± 0.28.
